Laboratory results: US20190175754A1 (UNIVERSITY OF CINCINNATI, published 2019)

How the values were obtained:
[1] = target: FLT3 on the surface of MONOMAC-6 cells (FLT3-overexpressing AML cell line) (human) (UniProt P36888); experiment: flow cytometry of Cy5.5+ MONOMAC-6 cells, 50 nM Cy5.5-conjugated nanoparticles, 1 h; negative control conjugate (background uptake)
[2] = target: T1, FLT3 on the surface of MONOMAC-6 cells (FLT3-overexpressing AML cell line) (human, UniProt P36888 27-993); experiment: flow cytometry of Cy5.5+ MONOMAC-6 cells after 24 h treatment with Cy5.5-conjugated nanoparticles, compared with G7-FLT3L
T1 construct: whole, on cells; Endogenous receptor on a cell line; also called FMS-like tyrosine kinase 3; FLT3 receptor
T1 sequence (looked up): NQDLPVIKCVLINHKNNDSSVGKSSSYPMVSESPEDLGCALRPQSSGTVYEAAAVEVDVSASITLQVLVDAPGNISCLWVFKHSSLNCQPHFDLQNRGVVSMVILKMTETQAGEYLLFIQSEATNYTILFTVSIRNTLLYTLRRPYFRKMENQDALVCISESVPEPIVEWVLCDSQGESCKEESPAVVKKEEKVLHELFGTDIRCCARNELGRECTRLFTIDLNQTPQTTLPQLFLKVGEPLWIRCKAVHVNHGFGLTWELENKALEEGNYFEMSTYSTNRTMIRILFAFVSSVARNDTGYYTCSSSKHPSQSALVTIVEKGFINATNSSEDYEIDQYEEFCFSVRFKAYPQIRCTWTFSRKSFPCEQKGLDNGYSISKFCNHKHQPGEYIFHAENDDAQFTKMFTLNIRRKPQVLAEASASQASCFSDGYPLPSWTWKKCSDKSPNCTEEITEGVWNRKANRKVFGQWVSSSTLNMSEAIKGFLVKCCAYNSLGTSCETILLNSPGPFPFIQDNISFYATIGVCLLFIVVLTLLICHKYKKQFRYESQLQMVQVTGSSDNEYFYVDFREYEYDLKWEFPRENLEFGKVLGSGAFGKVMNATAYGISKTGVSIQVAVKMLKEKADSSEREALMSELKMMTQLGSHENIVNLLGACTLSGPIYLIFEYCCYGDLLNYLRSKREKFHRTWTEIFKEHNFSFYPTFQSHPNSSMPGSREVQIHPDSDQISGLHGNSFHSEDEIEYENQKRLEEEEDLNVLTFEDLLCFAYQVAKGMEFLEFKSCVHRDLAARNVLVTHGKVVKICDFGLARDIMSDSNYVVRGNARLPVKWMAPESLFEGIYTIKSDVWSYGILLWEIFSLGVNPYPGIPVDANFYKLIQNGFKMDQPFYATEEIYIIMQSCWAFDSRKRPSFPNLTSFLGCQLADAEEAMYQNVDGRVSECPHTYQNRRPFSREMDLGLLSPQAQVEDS

[3] = target: T1, FLT3 on the surface of MONOMAC-6 cells …; experiment: flow cytometry of Cy5.5+ MONOMAC-6 cells, 50 nM Cy5.5-conjugated nanoparticles, 1 h
Description: FIG. 2(A) G7-NH₂ PAMAM dendrimers were first conjugated with the near-infrared dye Cy5.5 using an N-hydroxysuccinimide ester linker sulfo-SMCC. Next, the fluorescently-tagged G7-NH₂ (G7-Cy5.5) was conjugated to human recombinant FLT3L (i.e., the soluble FLT3L form with 155 amino acids; ProSpec-Tany Technogene Ltd., East Brunswick, N.J.) at a 1:2 ratio using the heterofunctional linker sulfosuccinimidyl 4-((N-maleimidomethyl) cyclohexane-1-carboxylate) (sulfo-SMCC), resulting in the G7-FLT3L conjugates. FIG. 2(B) MONOMAC-6 cells were treated with Cy5.5-conjugated G7-FLT3L or G7-H2B nanoparticles for 24 hrs at the indicated doses. The proportion of Cy5.5⁺ cells were detected through flow cytometry analysis. FIG. 2(C) MONOMAC-6 and U937 cells were treated with 50 nM Cy5.5-conjugated G7-FLT3L or G7-H2B nanoparticles for 1 hr. The proportion of Cy5.5⁺ cells were detected through flow cytometry analysis. FIG. 2(D) MONOMAC-6 cells transfected with MSCV-PIG-miR-150 (miR-150-PIG) or MSCV-PIG (PIG) were treated with 50 nM Cy5.5-conjugated G7-FLT3L or G7-H2B nanoparticles for 1 hr. The proportion of Cy5.5⁺ cells were detected through flow cytometry analysis. Each experiment was repeated independently for at least three times. Average levels of at least three replicates are shown. […]

[4] = target: T1, FLT3 on the surface of MONOMAC-6 cells …; experiment: flow cytometry uptake by FLT3-overexpressing AML cells, against control protein conjugated nanoparticles
Method: FIG. 2(B) MONOMAC-6 cells were treated with Cy5.5-conjugated G7-FLT3L or G7-H2B nanoparticles for 24 hrs at the indicated doses. The proportion of Cy5.5⁺ cells were detected through flow cytometry analysis. FIG. 2(C) MONOMAC-6 and U937 cells were treated with 50 nM Cy5.5-conjugated G7-FLT3L or G7-H2B nanoparticles for 1 hr. The proportion of Cy5.5⁺ cells were detected through flow cytometry analysis. FIG. 2(D) MONOMAC-6 cells transfected with MSCV-PIG-miR-150 (miR-150-PIG) or MSCV-PIG (PIG) were treated with 50 nM Cy5.5-conjugated G7-FLT3L or G7-H2B nanoparticles for 1 hr. The proportion of Cy5.5⁺ cells were detected through flow cytometry analysis. Each experiment was repeated independently for at least three times. Average levels of at least three replicates are shown. FIG. 2(E) Cell viability (left panel) and apoptosis (right panel) of MONOMAC-6 cells treated with PBS (Ctrl), 50 nM G7-FLT3L or G7-H2B nanoparticles for 48 hr. *, P<0.05; **, P<0.01. […]

Work on “G7-H2B dendrimers (Cy5.5-labelled G7 PAMAM dendrimer conjugated to histone H2B, negative control)” yielded an uptake ratio (proportion of Cy5.5+ cells) [1] of 5.9%.

B1: G7-Flt3L dendrimers (Cy5.5-labelled G7 PAMAM dendrimer conjugated to the synthetic 74-amino acid mouse Flt3L peptide) (peptide)
peptide: SSNFKVKFRELTDHLLKDYPVTVAVNLQDEKHCKALWSLFLAQRWIEQLKTVAGSKMQTLLEDVNTEIHFVTSC
modifications: conjugated to a Cy5.5-labelled G7 PAMAM dendrimer; attachment residue not stated
notes: also called G7-Flt3L nanoparticles; engineered mouse Flt3L peptide
B1: binds [2].

B2: G7-FLT3L dendrimers (Cy5.5-labelled G7 PAMAM dendrimer conjugated to human recombinant soluble FLT3L) (ligand, UniProt P49771 27-184, looked up)
chain: TQDCSFQHSPISSDFAVKIRELSDYLLQDYPVTVASNLQDEELCGGLWRLVLAQRWMERLKTVAGSKMQGLLERVNTEIHFVTKCAFQPPPSCLRFVQTNISRLLQETSEQLVALKPWITRQNFSRCLELQCQPDSSTLPPPWSPRPLEATAPTAPQP
modifications: conjugated through the sulfo-SMCC linker to a Cy5.5-labelled G7 PAMAM dendrimer (approximately 0.5-1 FLT3L molecules per dendrimer); attachment residue not stated
notes: extracellular domain; The protein is carried on a G7 PAMAM dendrimer labelled with Cy5.5; also called G7-FLT3L nanoparticles; G7-FLT3L conjugates
In the case of B2, the “uptake ratio (proportion of Cy5.5+ cells)” value [3] is reported as 23.6% and the “fold specificity and efficiency in targeting and uptake against nanoparticles conjugated with control proteins” value [4] is reported as 4 times.
